The source of these data is publication PMC2849673 (Biochemistry, 2010).

A word on the stoichiometry N: it is the number of molecules, sites or subunits per partner or assembly.

This data set concerns the molecule itself. The data set can be described thus: crystal structure.

B1: E-2-(acetamidomethylene)succinate (E-2AMS) hydrolase (enzyme, Mesorhizobium loti MAFF303099, UniProt Q988D4 1-278, looked up)
chain: MDMAADIASDHFISRRVDIGRITLNVREKGSGPLMLFFHGITSNSAVFEPLMIRLSDRFTTIAVDQRGHGLSDKPETGYEANDYADDIAGLIRTLARGHAILVGHSLGARNSVTAAAKYPDLVRSVVAIDFTPYIETEALDALEARVNAGSQLFEDIKAVEAYLAGRYPNIPADAIRIRAESGYQPVDGGLRPLASSAAMAQTARGLRSDLVPAYRDVTKPVLIVRGESSKLVSAAALAKTSRLRPDLPVVVVPGADHYVNEVSPEITLKAITNFIDA
In the case of B1, the “stoichiometry N” value amounted to 2.
